Publication PMC11607802

Biological target: Butelase AY (Butelase 1 V237A/T238Y), zymogenic form before activation (Clitoria ternatea)
Experiment: SEC

stoichiometry N: 2
Substance: Butelase AY (Butelase 1 V237A/T238Y), zymogenic form before activation (enzyme)
